PMC2710002, “KCNE1 and KCNE3 β-Subunits Regulate Membrane Surface Expression of Kv12.2 K^+ Channels In Vitro and Form a Tripartite Complex In Vivo” (PLoS ONE, 2009)

Target: the molecule itself
Experiment: native gel or EMSA; blue native PAGE (4-16% NativePAGE Novex Bis-Tris, G-250, pH 7, 4°C) of proteins immunoprecipitated from digitonin lysate of mouse brain; blot with anti-Kv12.2; size of the Kv12.2 complex

B1: Kv12.2 channel (natural protein, mouse (endogenous in mouse brain), UniProt Q9WVJ0 1-1095, looked up)
chain: MPAMRGLLAPQNTFLDTIATRFDGTHSNFVLGNAQVAGLFPVVYCSDGFCDLTGFSRAEVMQRGCACSFLYGPDTSELVRQQIRKALDEHKEFKAELILYRKSGLPFWCLLDVIPIKNEKGEVALFLVSHKDISETKNRGGPDNWKERGGGRRRYGRAGSKGFNANRRRSRAVLYHLSGHLQKQPKGKHKLNKGVFGEKPNLPEYKVAAIRKSPFILLHCGALRATWDGFILLATLYVAVTVPYSVCVSTAREPSAARGPPSVCDLAVEVLFILDIVLNFRTTFVSKSGQVVFAPKSICLHYVTTWFLLDVIAALPFDLLHAFKVNVYVGAHLLKTVRLLRLLRLLPRLDRYSQYSAVVLTLLMAVFALLAHWVACVWFYIGQQEIESSESELPEIGWLQELARRLETPYYLVSRSPDGGNSSGQSENCSSSSSSSGSGGGRGSEANGTGLELLGGPSLRSAYITSLYFALSSLTSVGFGNVSANTDTEKIFSICTMLIGALMHAVVFGNVTAIIQRMYARRFLYHSRTRDLRDYIRIHRIPKPLKQRMLEYFQATWAVNNGIDTTELLQSLPDELRADIAMHLHKEVLQLPLFEAASRGCLRALSLALRPAFCTPGEYLIHQGDALQALYFVCSGSMEVLKGGTVLAILGKGDLIGCELPQREQVVKANADVKGLTYCVLQCLQLAGLHESLALYPEFAPRFSRGLRGELSYNLGAGGVSAEVDTSSLSGDNTLMSTLEEKETDGEQGHTVSPAPADEPSSPLLSPGCTSSSSAAKLLSPRRTAPRPRLGGRGRPSRAGVLKPEAGPSAHPRSLDGLQLPPMPWNVPPDLSPRVVDGIEDGCSSDQPKFSFRVGQSGPECSSSPSPGTESGLLTVPLGPSEARNTDTLDKLRQAVMELSEQVLQMREGLQSLRQAVQLILVPQGEGQCPRGSGEEPCPATASGLLQPLRVDTGASSYCLQPPAGSVLSGTWPHPRPGQPPPLMAPWPWGPPASQSSPWPRATALWTSTSDSEPPGSGDLCSEPSTPASPPPSEEGARTGTPAPVSQAEATSTGEPPPGPGGRALPWDPHSLEMVLIGCHGPGTVQWTQEEGTGV
notes: Kv12.2 (ELK2, KCNH3) voltage-gated potassium channel alpha subunit, mouse, endogenous in brain; about 120 kDa monomer on a denaturing gel, about 500 kDa complex on a native gel; also called ELK2; KCNH3; source: endogenous, mouse brain membrane lysate (0.5% Igepal) or whole mouse brain lysate (1% digitonin)
  stoichiometry N: 4
